Patent publication US20050148516

Test system: heparan sulfate proteoglycan (HSPG) on HUVEC

| Substance | amount of FGF-2 released from HSPG on HUVEC (FGF-2 ELISA of the supernatant, 4 °C) |
| --- | --- |
| GnT-VΔ73 | GnT-VΔ73 and KRKRKK peptide released FGF-2 |
| GnT-VΔ188 | Like GnT-VΔ73, also GnT-VΔ188 and GnT-VΔ233 released FGF-2 |
